In patent publication US20250115926A1, “DEREGULATED DHS AND TYRA ENZYMES OF GRASSES ENABLE EFFICIENT PRODUCTION OF BOTH TYROSINE AND PHENYLALANINE” (priority 2023, published 2025):

B1: Sorghum bicolor SbTyrA1, SEQ ID NO: 39, recombinant (Sorghum bicolor) (protein)
chain: MLSSSTSTLRLHQPTRPHRHHPPAPAAGGATHLASPRRWRGHAPGASSPPALRARAQRIRALDAAQPFDFESRAAGLLEERQRLKIAIVGFGNFGQFLARTFARQGHTLLAHSRTDHSALASTLGASFFTDPHDLCECHPDVVLLATSILSAEAVLRSLPVHRLRRNTLFVDVLSVKEFPRNLLLSSLPPDFDVICTHPMFGPESARDGWDGLPFVFDKVRVGDCPARRARAEAFLNIFEREGCRMVEMSCAEHDAHAAETQFLTHTVGRMLAMLELRSTPINTKGYETLLRLVDNTCSDSFDLYNGLFMYNKNSTELLNRVEWAMDSVKKKLFDGLHDVLRKQLFEGSPHAPNVSSSNVRK
notes: from genomic DNA
B2: Sorghum bicolor SbTyrAnc (non-canonical TyrA), SEQ ID NO: 43, recombinant (Sorghum bicolor) (protein)
chain: ALTSPSPVEQHLQAVVPCHGISDPPAASSAAAVPAAPLRVGIVGFGNFGQFIAGGLQRQGHVVLAASRSDYSVYCASHGIRFFRSVDALCEEQPDVLLICSSILSTEGVVRAIPFRKLRHDTIVADVLSVKEFPRNLLLEVLPPGFGIICTHPMFGPESGKHGWGKLPFVFDKVRVAEDGDQAAKCDQFLSIFEQEGCRMVEMSCAEHDRYAAGSQFITHTIGRVLSQLNLKSTPINTKGYETLLQLTKNTVSDSFDLYYGLFMYNVNATEQLDKLEMAFEKVRQMLSGRLHDFIRKQIVERAAHVPADPSGKLANGLSSSPAARLL
notes: from cDNA
B3: Sorghum bicolor SbTyrA2, SEQ ID NO: 41, recombinant (Sorghum bicolor) (protein)
chain: ATGASQPLGTDSNEEVEKVEEQPQPPPRLKIAVVGFGTFGQFLARTLVAQGHTVLAHSRSDHSAAAASMGALFFSDPHDLCECHPDVVLLATSILSAESVVRSLPLHRLRRDTLFADVLSVKEFPKRLLLGLLPEEMDILCTHPMFGPESARAGWAGLPFMFDKVRVRDTVPARRARAEAFLDVFAQEGCRMVEMSCAEHDAHAAETQFLTHTVGRMLAALELRATPIDTRGYETLLRLVENTCSDSFDLYNGLFMYNNNSTELLNRLDWAMDAVKRRLFDGLHDVLRRQLFHVGEVEGEAERMEELAVVPGGGPDTDDDGCATATATSIKSGEENN
notes: from genomic DNA
B4: Brachypodium distachyon BdTyrA2, SEQ ID NO: 35, recombinant (Brachypodium distachyon) (protein)
chain: RATDAARQPFDHLSGAVKSEEGTHPRLKIAIVGFGNYGQFLARTMVQQGHTVLAHSRSDHSAAAATIGASFYADAHDLCECQPDVVLLSTSILSAEAVLRSLPVHRFRRSTLFADVLSVKEFPKNLLLAYLPGDFDVICTHPMFGPESARDGWAGLPFVFDEVRVGDGPARRARADAFLDVFAREGCRMVEMSCAEHDAHAAETQFLTHTVGRMLATLDLKSTPINTKGYETLLRLVDNTCSDSFDLYNGLFMYNNNATELLHRLESAMDSVKRRLFDGLHEVLRRQLFEGSPPLNRDSSFPAESSLDDGR
B5: Brachypodium distachyon BdTyrA1, SEQ ID NO: 33, recombinant (Brachypodium distachyon) (protein)
chain: MLSSSTSHLRLHQPSRAARRLPPAPAPATYQFQSPASRRSLPAPAVGARIRPNRGGTIRAIDAAQPFDYESRAAGLLEERQRLKIAIVGFGNFGQFLARTFARQGHTLLAHSRSDHSSLAASLGAAYFQDPHDLCECHPDVVLLATSILSAEAVLRSLPVHRLRRNTLFVDVLSVKEFPKNLLLTTLPEGFDIICTHPMFGPESARDGWDGLPFVFDKVRVGDCPARRARADTFLNIFEREGCRMVEMSCAEHDAHAAETQFLTHTVGRMLATLELQSTPINTKGYETLLRLVDNTCSDSFDLYNGLFMYNKNSTDLLNRLESAMDSVKKRLFDGLHDVLRKQLFEGKASPPATSSNTKSDVHRGQLLLEGKASPAPLNANNTTVRN
notes: from genomic DNA
B6: Brachypodium distachyon BdTyrAnc (non-canonical TyrA), SEQ ID NO: 37, recombinant (Brachypodium distachyon) (protein)
chain: AEQEQKQEVAAPCRDAYEKPAVWNTTAADSAEAAPPLRVGIIGFGNFGQFIARGIQRQGHAVLATSRSDYSAYCSAQGIRYFRSLEALCEEQPNVLLVCSSILSTEAVVRAIPFHKLRSDTIVADVLSVKQFPRNLLLEILPPEFGIVCTHPMFGPESGKHGWSTLPFVYDKVRLADKGDQKANCGQFLSIFEGEGCRMVEMSCAEHDRHAAASQFITHTIGRVLAQLNLKSTPINTKGFEALLKLTENTVSDSFDLYYGLFMYNVNATEQIEKLERAFEKVKQMLYGRLHDILRKQIVERVPI
notes: from cDNA

substrate: N[C@@H](CC1(C(=O)O)C=CC(O)C=C1)C(=O)O; test: TyrA arogenate dehydrogenase kinetics and tyrosine inhibition (340 nm); assay type: biochemical, Sorghum bicolor; conditions: other: NADP^+, pH 7.5, 37° C.
Source text: (§1) Next, to study the biochemical properties of grass TyrA enzymes, we generated and characterized recombinant purified TyrA proteins from Brachypodium (BdTyrA) and Sorghum (SbTyrA), two distantly related grass species^43, 44. Whereas TyrA enzymes from dicot plants are generally NADP^+-dependent arogenate dehydrogenases^20, 39, 45, except for NADP^+-prephenate dehydrogenases in the legume family^40, 46, previous reports on the substrate preference of grass TyrA enzymes are inconclusive^17, 19. […] NAD^+-prephenate dehydrogenase activity was absent in all cases, ruling out a significant contamination of the enzyme preparations with the TyrA enzyme from E. coli^47.48.

Row | Protein | Km [µM] | kcat [s⁻¹] | kcat/Km [M⁻¹ s⁻¹]
1 | B1 | 570 ± 150 | 2.9 ± 0.6 | 5300 ± 800
2 | B2 | 220 ± 60 | 73.5 ± 18.2 | 338000 ± 19500
3 | B3 | 2130 ± 530 | 38.5 ± 8.8 | 18100 ± 9600

substrate: N[C@@H](CC1(C(=O)O)C=CC(O)C=C1)C(=O)O; test: as above; assay type: biochemical, Brachypodium distachyon; conditions: other: NADP^+, pH 7.5, 37° C.; remark: another data set of the same source
Source text: as §1

Row | Protein | Km [µM] | kcat [s⁻¹] | kcat/Km [M⁻¹ s⁻¹]
4 | B4 | 450 ± 40 | 18.5 ± 0.6 | 41200 ± 1700
5 | B5 | 1410 ± 240 | 5.2 ± 0.8 | 3600 ± 800
6 | B6 | 130 ± 40 | 76.5 ± 5.5 | 580000 ± 24300
